Values of other authors in publication PMC4476730.
Where two headings read alike, the source gives them in different places.

What was measured:
CBP KIX (Homo sapiens) [1] = molecular target: CBP KIX (Homo sapiens) (UniProt Q92793)
CBP KIX (Homo sapiens) [2] = molecular target: CBP KIX (Homo sapiens) (UniProt Q92793); remark: listed apart in the source

UniProt Q92793, sequence (Q92793 584-669): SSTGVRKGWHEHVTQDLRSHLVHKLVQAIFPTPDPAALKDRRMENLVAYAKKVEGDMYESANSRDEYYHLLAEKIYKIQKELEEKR

Kd (CBP KIX (Homo sapiens) [1]): 17 µM
Kd (CBP KIX (Homo sapiens) [2]): 7.2 µM
Substance: E2A AD2 (from UniProt P15923)
